Paper PMC9352680, “A comprehensive thermodynamic model for RNA binding by the Saccharomyces cerevisiae Pumilio protein PUF4”

T1: PUF4 RNA-binding domain (Saccharomyces cerevisiae, UniProt P25339 537-888)
T1 sequence: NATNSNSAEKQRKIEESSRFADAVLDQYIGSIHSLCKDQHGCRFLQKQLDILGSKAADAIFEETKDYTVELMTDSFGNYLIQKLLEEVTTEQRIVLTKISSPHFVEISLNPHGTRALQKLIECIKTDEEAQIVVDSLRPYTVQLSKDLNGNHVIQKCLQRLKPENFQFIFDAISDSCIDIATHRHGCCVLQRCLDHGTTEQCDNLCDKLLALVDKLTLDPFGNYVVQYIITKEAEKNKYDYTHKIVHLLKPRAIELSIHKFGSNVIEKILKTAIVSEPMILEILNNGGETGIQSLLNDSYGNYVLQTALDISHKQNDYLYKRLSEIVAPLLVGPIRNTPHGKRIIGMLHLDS


Biological target: T1, PUF4 RNA-binding domain
Test: Mg; RNA-MaP; 20 mM Na-HEPES pH 7.4, 30 mM KOAc, 0.75 mM MgCl2, 0.1% Tween-20, 5% glycerol, 0.1 mg/mL BSA, 2 mM DTT; 25 C; 0.0125-409.6 nM protein
Details: tags: N-His6-TEV cleaved; C-SNAP kept, Cy3B-labelled; label: tethered on chip by stalled RNA polymerase

Binder	Kd [nM]
UCUCUUAGUGUUAUUAUCUCUU (ssRNA) [Ib_S1_P5E.1_K5.1_C5.1_H5.1_[T1A]_[A4G]_A5.1_F5.1_T5.1]	> 2300
ACAAACCAUAUAUUAUUACAACAAAC (ssRNA) [Id_ii_S3_P5E.3_K5.2_C5.2_[T-1A]_H5.2_A5.1_F5.1_T5.2_[T11C]]	240
ACAAACGGACACUUAUUACAACAAAC (ssRNA) [Id_ii_S3_P5E.4_K5.3_C5.2_[C-2G]_[T-1G]_H5.3_A5.1_F5.1_T5.2_[T11C]]	> 2300
ACAAACAUUAUAUUAUUAGGACAAAC (ssRNA) [Id_ii_S3_P5E.3_K5.2_C5.2_[C-2A]_H5.2_A5.1_F5.1_T5.2_[T11G]_[A12G]]	94.3
ACAAACCUUAUAUUAUUACGACAAAC (ssRNA) [Id_ii_S3_P5E.3_K5.2_C5.2_H5.2_A5.1_F5.1_T5.2_[T11C]_[A12G]]	406
ACAAACCUUAUAUUAUUAGAACAAAC (ssRNA) [Id_ii_S3_P5E.3_K5.2_C5.2_H5.2_A5.1_F5.1_T5.2_[T11G]]	108
ACAAACCAUAUAUUAUUAAAACAAAC (ssRNA) [Id_ii_S3_P5E.3_K5.2_C5.2_[T-1A]_H5.2_A5.1_F5.1_T5.2_[T11A]]	631
ACAAACCUUAUAUUAUUAUUACAAAC (ssRNA) [Id_ii_S3_P5E.3_K5.2_C5.2_H5.2_A5.1_F5.1_T5.2_[A12T]]	208
ACAAACGCACACUUAUUAAGACAAAC (ssRNA) [Id_ii_S3_P5E.4_K5.3_C5.2_[C-2G]_[T-1C]_H5.3_A5.1_F5.1_T5.2_[T11A]_[A12G]]	> 2300
ACAAACCGUAUAUUAUUAGAACAAAC (ssRNA) [Id_ii_S3_P5E.3_K5.2_C5.2_[T-1G]_H5.2_A5.1_F5.1_T5.2_[T11G]]	15.8
ACAAACCAUAUAUUAUUAACACAAAC (ssRNA) [Id_ii_S3_P5E.3_K5.2_C5.2_[T-1A]_H5.2_A5.1_F5.1_T5.2_[T11A]_[A12C]]	201
UCUCUUCGUGUUAUUAUCUCUU (ssRNA) [Ib_S1_P5E.1_K5.1_C5.1_H5.1_[T1C]_[A4G]_A5.1_F5.1_T5.1]	2300
ACAAACCCUAUAUUAUUAAAACAAAC (ssRNA) [Id_ii_S3_P5E.3_K5.2_C5.2_[T-1C]_H5.2_A5.1_F5.1_T5.2_[T11A]]	673
ACAAACCAUAUAUUAUUACUACAAAC (ssRNA) [Id_ii_S3_P5E.3_K5.2_C5.2_[T-1A]_H5.2_A5.1_F5.1_T5.2_[T11C]_[A12T]]	168
ACAAACCAUAUAUUAUUAAUACAAAC (ssRNA) [Id_ii_S3_P5E.3_K5.2_C5.2_[T-1A]_H5.2_A5.1_F5.1_T5.2_[T11A]_[A12T]]	157
ACAAACGCACACUUAUUAAAACAAAC (ssRNA) [Id_ii_S3_P5E.4_K5.3_C5.2_[C-2G]_[T-1C]_H5.3_A5.1_F5.1_T5.2_[T11A]]	> 2300
ACAAACCCUAUAUUAUUAACACAAAC (ssRNA) [Id_ii_S3_P5E.3_K5.2_C5.2_[T-1C]_H5.2_A5.1_F5.1_T5.2_[T11A]_[A12C]]	452
ACAAACAUUAUAUUAUUAGAACAAAC (ssRNA) [Id_ii_S3_P5E.3_K5.2_C5.2_[C-2A]_H5.2_A5.1_F5.1_T5.2_[T11G]]	144
ACAAACGGACACUUAUUAAGACAAAC (ssRNA) [Id_ii_S3_P5E.4_K5.3_C5.2_[C-2G]_[T-1G]_H5.3_A5.1_F5.1_T5.2_[T11A]_[A12G]]	> 2300
ACAAACCCUAUAUUAUUACUACAAAC (ssRNA) [Id_ii_S3_P5E.3_K5.2_C5.2_[T-1C]_H5.2_A5.1_F5.1_T5.2_[T11C]_[A12T]]	400
ACAAACCUUAUAUUAUUAGCACAAAC (ssRNA) [Id_ii_S3_P5E.3_K5.2_C5.2_H5.2_A5.1_F5.1_T5.2_[T11G]_[A12C]]	59.3
ACAAACGCACACUUAUUAGAACAAAC (ssRNA) [Id_ii_S3_P5E.4_K5.3_C5.2_[C-2G]_[T-1C]_H5.3_A5.1_F5.1_T5.2_[T11G]]	> 2300
ACAAACGGACACUUAUUAGCACAAAC (ssRNA) [Id_ii_S3_P5E.4_K5.3_C5.2_[C-2G]_[T-1G]_H5.3_A5.1_F5.1_T5.2_[T11G]_[A12C]]	> 2300
ACAAACAUUAUAUUAUUACAACAAAC (ssRNA) [Id_ii_S3_P5E.3_K5.2_C5.2_[C-2A]_H5.2_A5.1_F5.1_T5.2_[T11C]]	464
ACAAACCCUAUAUUAUUACCACAAAC (ssRNA) [Id_ii_S3_P5E.3_K5.2_C5.2_[T-1C]_H5.2_A5.1_F5.1_T5.2_[T11C]_[A12C]]	448
ACAAACCCUAUAUUAUUAAUACAAAC (ssRNA) [Id_ii_S3_P5E.3_K5.2_C5.2_[T-1C]_H5.2_A5.1_F5.1_T5.2_[T11A]_[A12T]]	464
ACAAACCUUAUAUUAUUAAUACAAAC (ssRNA) [Id_ii_S3_P5E.3_K5.2_C5.2_H5.2_A5.1_F5.1_T5.2_[T11A]_[A12T]]	459
